A short description of this data set: label from the status in PepcDB records.

“MALGPEGAADLQRQLTEWTVFTAHCWQARSPQTEVLIATSGGTSEAWQQWLGAVEVQPQAEGDLGDRLHQAFQDSWQVGCDRTVIIGSDCPQIEPHHLDEAFAVLQQADVVIGPASDGGYWLIGLSQPQPQLFQNIDWGSDRVLVQTLEAAQVADLQVAQLESLSDLDRPEDLNLWQPQPQLSVIITTLNEAANLPQTLALIGDAPVETLVVDGGSQDATVAIAQAWGAKVIHSPAGRGRQFNQGAAAAHGNILLFLHGDTRLPPRFWEHVLQTLQPPQVVAGAFQLQIDSPDWRLRWIERGVRWRSHWLQQPYGDQALFLSRDRWRAIGGFSTGPLLEDYRFVRQLRRQGTIAIASAAVMTSARRWQRRGVLQTTLLNQLILLAHHCGVSDQQLARWYRLEHHHHHH”: the protein production entry is “not failed”.

Consider “MALKATIYKATVNVADLDRNQFLDASLTLARHPSETQERMMLRLLAWLKYADERLQFTRGLCADDEPEAWLRNDHLGIDLWIELGLPDERRIKKACTQAAEVALFTYNSRAAQIWWQQNQSKCVQFANLSVWYLDDEQLAKVSAFADRTMTLQATIQDGVIWLSDDKNNLEVNLTAWQQPS”, for which the protein production entry is given as “not failed”.

Consider “MALKDTGSGGSTILPISEMVSASSSPGAPLAAAPGPCAPSPFPEVVELNVGGQVYVTKHSTLLSVPDSTLASMFSPSSPRGGARRRGDLPRDSRARFFIDRDGFLFRYVLDYLRDKQLALPEHFPEKERLLREAEFFQLTDLVKLLSPKVTKQNSLNDECCQSDLEDNVSQGSSDALLLRGAAAGAPSGSGAHGVSGVVGGGSAPDKRSGFLTLGYRGSYTTVRDNQADAKFRRVARIMVCGRIALAKEVFGDTLNESRDPDRQPEKYTSRFYLKFTYLEQAFDRLSEAGFHMVACNSSGTAAFVNQYRDDKIWSSYTEYIFFRPPQKIVSPKQEHEDRKRDKVTDKGSESGTSCNELSTSSCDSHSEASTPQDNPANTQQAAAHQPNTLTLDRPSRKAPVQWMPPPDKRRNSELFQSLISKSRETNLSKKKVCEKLSVEEEMKKCIQDFKKIHIPDCFPERKRQWQSELLQKYGL”, for which the protein production entry is on record as “failed”.

“MALLAIDLDMFGHGSAGQVLGRTDVDRVEYQYSTKSLLSIYIFYEETCGFFIDEEKKVFVVFELDESQAYKYAYIIGENICLKKLDLGEVRTFSCPIVCSSSYVPS”: the protein production result is “failed”.

“MALMSDKFLSIVIPAYNSEKYIEKNLMFLSRQTSNNFEVIVVDDGSTDNTCEVSEACLENFKINHRVIRCEENRGQSVARNIGINYSRGKYILFLDSDDFAENNLVQILERNMFNEPDIVFFDYKRIKEGDSVNVNIAQNFEFGKIKSGEEVFNAYKDNKIRLWTGSLVYNKEFLNKNKLRFLEGAHGAEDLNFIFKALLSSKKVRGIEDSLVFYCQRGDSLTNNPDIYKNITVVESMEDVAKFIDENKLDKKLKEAIEKEFTCEHIMYQILGYLNSETKKDTLSVLKNKNVKKYLKKATIKTNRYGRSMYTYMKMAAYFPNLFIKTYLKNTGKLEHHHHHH”: the protein production entry is given as “not failed”.

With “MALNTNQLFAYLNRGDIAEFKFSPLFTTLFFPNVATFSTQNIMLDTLDIEEVTMSAFCSPMVGSQVQRDKGYETSTIKPGYMKPKHEIDPTKTIMRMAGEDPAQLNDPTYRRMRLITGNMRRQINAIKARVEWLAVNAVTTGKNIIEGEGIERYEIDWKIPEKNIIEQADGKKWSEQDKETHYPIYDIELYADQAGCPANVMIMGAEVWRTLRSFKKFRELYDLSRGSESAAELACKNLGEVVSFKGYLGDLALIVYSGKYTDSDGTEKYFLEPDLLVLGNTNNKGLVAYGAIMDQEAVRTGATQNMFYPKNWIEDGDPAIEYVQTHSAPQPVPADIRKFVTVKIA”, the protein production result is “not failed”.

Turning to “MALPDRRAEGVAASLAGALIPAFLAAQDRIIEMVPFRTSATLFAFVLTIVFLAFALRVLFSFRDVRSAAVETALFATGFLYVPLLLTHLAWLRALPDGVGWIFLVLVIVMSGDTAAYYVGSNLGRRKLYPSVSPNKSVEGAIGGLLGSLAGTFVARLTFFPGLTVLDCIATALLLGVLGQVGDLFESLLKRSFGVKDSGTIVPGHGGILDRLDSILFAVPAAYYYALFVFMNR”, the protein production entry is recorded as “failed”.

As for “MALPPILRDRLRLPVIASPLFIISNPDLVIAQCKAGIVGSFPSLNARPLSQLDEWLARITEELAAWDKANPDMPSAPFAVNQIVHKTNNRLEDDIAMCVKYKVPLVITSLGAREDVNQAIHSYGGITLHDVITDRFARKAIEKGADGLIPVAAGAGGHAGTLSPFALIQEIRQWFDGPVALSGSIASGRSILAAQAMGADLAYVGSAFIATKEANAVEGYKQMIVDSKADDILYSNLFTGVHGNYLRPSVIKAGLDPENLPESDPSKMNFGSGGNQDAKAWRDIWGCGQGIGAIDNVLTAGELVAKFAAEYEQAKAELAAKTALTAGKHLAFAAE”, the protein production result is on record as “failed”.

With “MALPPYDPNFKFAFSLGTIAKHQDYDESASAAVVALDLISSARFALKLDSVYTEYSAKYVVDNAAGSHSGRKLTVKDCLEFALNKGGIPKAEDWPRLGSVITPPSSYKPDLVSMKGQVIEPQTIEEACDMVVDQPVGAKLHVFKPHIELQQDASAITGIYCGTSGEPASYVGLRDAIIVGVEKIQGKSIGTVKVWYKKFIFLKVAMSRWFQLYSPDGTHTGIKRTDYLVDFCVPRLSMD”, the protein production entry is “failed”.

For the sequence “MALQLGPHELQHVFSFLEARDLLRAAQVNKVWNEVSMTNELWRQLCLRRWAPCKALPVVLGTQTWRQYYFCRSELEFRVKSGRPQDFICKAISGHTGTIDQLAYVSPHEYRFDEKARSVVCTVSSDCTVRAWDLQEGTEMWSSPVQPAPLVNLVAYPQLQLVVTVDTQGLIRGWNTDTGSEWAFFSLPTSCSSMEACDHPEGSFLLVACAEGTLYTMTVPQLQVVFRVATFPHTPVSLMCSPDKQWVLVSAQDSDLGPKVFYTQPLLHPSEDRLPASATLPIRLSSRACWAPDEAARLMVTHRDDSGVHLVITTFELKANKSRDRVSILAQQLASFPLPDTMTPHLMQGHGSQVILLTSGSELVLFNIHGLQLMAFQDHQKPITSVWVDPDRVITAALDLSLCVYVWNKENTSPILKSCYHLLGGSHRWASGFTHVKSDSRSIAGVEARSTGTSILRSYCYKVQLG”, the protein production entry is “failed”.

On to “MALSIIENGKKLESTIDFSNFLKEFKKYRLRVLLVVLAITLAAFPLINGMTPQYTATATIVLKAKTDNSTPIDQVEDFDATQAEYYPTQAELLQSKTVIEAAAKKLDLINSPIFEDEDKDENIPQSEEEHLYSIVKAIKKKLSISPVRFSQLVHVSYESKDSDMSALVANAVVESYIEQQEQRKIEKTQQAQQWNNTRMSELKEKIKQQKADIDKFLSDNGLLTYQGVDGFETEQLALVNDRLATAKEKRITAKANYNTISEALGYPLEDVATLPSISNHAQLQDLRIALIQAKRTLFDLQKMYGPKNRQILEANAQIKAIELQTTALLKELKTGLYKEYQAAIERENKYRALLAEQKKDFTALAAKKDTYNTMKADLDKTQELYEKIFLRSKEQELTVLYREPVARLLDAATPPHKPSKPNKALLLIMVCAMTIIFSLLFIIIKSALNKSINNLTQVNTRLGLQGIGELISLNYIDELALFTKNFFKNSYSAETVHAIRTTILLDDKPWPIIGLTSTESTESNELNSYLLAYSFSQDRSTLLIDLDYRKEISLTEAILMQKENEIDAKKAENSDDFETVPTSTVMGVAEALEQKHPINDCLIKIENNLTFLPRGTLTETPLITLASEELGRQLKELSKQFEQVIVNLPAMTESKDAQLIARHLSGVIYTVQAGELSANHILANIEKVKQVQTPIMGVILTDVQNDELETEEAKQQLIHQNDDILG”, for which the protein production result is on record as “failed”.

For “MALTEEEKSINIVDLFIYLIAHWKWFVLSILLFGGYFWYSYCETPFVYSRTAIVMIKTPANSRSAMQLNNADFIGQVNVASEILQFKSKELMRKVIDRLHADVSYMVRDGLRPRELYTDSPVRVAFLEAGLDEVCSLSVIPKNKQQVELADFSLDELEQRKTVNLNDTVDTPLGKLIVFTAENYSESYFDRPIKVTSKSREGMVAFWLSNLTIRQMSGDAALLSMTMNDLSPTRAADILDMLITVYNEEAIKDKNRISVNTAEFIKERLQIIEHELGSVETDIEDLKRANNGVDINTVAGMYIQDSRQYESSIKELDTQLQLVSFIKQYLQDSNKDDELIPSNIGLSDLSIESQISRYNETLLRRNRLVSGSSSNNPVVQELNRIMQTMKQNIYMAVDNLSKSLRLKKQDYMRQESHVRQKVQAVPGKQREMLSIERQQKVKESLYIFLLNKREENALSQAMVDNNARILDPVSGSNLPISPNKYKKMILGVGCGIIVPSVILLLILMLDTRVHNRKEVEAVVSAPFLADIPQTAKASVDAHEVVVRARGLDPLSEAFRILRTNLGFMLSQAQDHKIITLTSFNIGAGKTFVSVNLAASLVQTKKKVLILDLDLRKGKMSEMAHSKHVKGVAHYLSNPSIVVDDLILRDAFGEGLDLIPIGVIAPNPTELLLSRRLDELMDRLRELYDYIIVDNVPIGLVADASVVNRISDLTLFIVRVGKIDRRQLPELERLYQEHKLTNMAVVLNGTKKGSSGYGYGYGYGQGYGYKNAEKKKGLFGRKKKKSRK”, the protein production result was “failed”.

With “MALTSGQVGNLLNAFDSHGGHFQTQMAFRLMWLTLTRANESVQARWDEFDLANGLWKIPKERMKARREHLLPLPRQAVSILTTMQPITGQSTYVFPNRDDRHKPMSDAAFRQALKKLGWATIYSPHGTRTTGSTRLNEMGLEHHHHHH”, the protein production result is reported as “failed”.

Consider “MAMALFQSAPHSLCILRLSAIGDVCNTIAAVQAIQRQWPQTRITWVTGKLEAELIQSLPDIQVIVFDKKLGWRAYTQLWQQLKSERFDALLHMQYAFRASIATLGIKARYKLGFDAARSQDFQTWFTNVKVPSPDKMHVLDGLLAFVEHLGIRDIEPKWSLTCQPDDLTWAEAQFQPEQPRLVVVPGASKAYKNWTAEGYAAVIEHAQQQGWQVILAGSPAQVERDLAAQVEQALAHPVLNLVGKSTLQQMLALLAKADLVIAPDTGPAHMANAMHTPIIGLYAHHNPERTGPYHYRHYVVSAYQEALLAETGKMPQQVDWRTRVKDPNAMQRITAQQVIAMFERAAADIMATQVND”, for which the protein production result is listed as “failed”.

As for “MAMNEIALFKGVRIQPYQKYIDFMFASVLAFIFLVYRIYILFIDYKSVNKKLDILTLFAYFKPHLLYLLIGTAIIFVICKLIAQFLIRFKTKDLAEMIETQGFHNRTVIKKTTEYIPIDYKQTEYDYYPTMFYKRGKKSFVIHIKKDGSRFQDNYLELETIIEPMFNSELVEKKHIGRYLRYEFMPLKYKKRIVMNGEQESNTIFYDTKIAITHQITWDFVKAPHGLVTGITGGGKTYFLFYVIRELFRRHSEVRLLDPKVSDLSFMKRVIGDDKVADTKGQILKQLREANNEMEERFRLMNDSSDYKIGNDFRNFDMRPYFIIFDEVTAFTSTLDKKELQEMNDYLINIIMKGRQAGVFMFLTAQRPDADVIKGNVRDQLGLRVSLGNLSNDGYRMTFGQTDKEFQTIHDSDIGRGYISILGQYNEPILFDAPLMEQYDFVEDVKQILNKE”, the protein production result is recorded as “failed”.

Consider “MAMVASVSMAFVLVFCTILLFHFVQQSRFTTATQLESIARSVREPLSAAILKADIPEAEAILSRIQPAGIVSRADVVLPNQFQALRMRFIPERPVPVTVTRLFELPVQISLPIYSLERPANPQPLAYLVLQADSYRMYKFVMSALATLVTAYLLLVLMLTVALTWCINRLMVRPLRRIARELNDLSQQERLGHQLTLPRLHHDDEIGMLVRSYNRNQQSLVRQHDELSIQSTRFPVSELPNKAFLLAMLEQTVARPQSAALIVVACETLQDAAGVLKESQREMLLLTLVEKLRAAIPPQMVLAQVSGYDFAILADGLAEPWQAVTLSKQVLTIINERLPLHGLQLRPYASVGIAMFHAGLSAEQFYRRAVSAAVTARRKGKNQIEFFDPEQMEKAQRRLMEEHDIMTALDNQQFAIWLQPQVACASGEICGAEVLLRQRQADGSWSLPPSLIERIESCGLIIPVGYWVMEEACRQLAAWQSQGIMLPLSVNVSLLQLLEHDRGEEMLKLIARYRIAPGTLILEVTESCRMDDPQDVMARLRPLREAGVQIALDDFGMGYAGLHQLQQMKALPVDILKIDKVFIDMLPEDVSMVPAMIQLARGLSLRIVAEGVENDAQRRWLQAAGVEVLQGHLFGCALPQEAFSARYLSPAREDVNL”, for which the protein production entry was “failed”.

The values above are taken from a protein production outcome set (Wang et al. 2014).
